# Experimental data: patent US20250049939A1, “NOVEL FLT3 ANTIBODIES AND ANTIBODY-DRUG-CONJUGATES BASED THEREON, THERAPEUTIC METHODS AND USES THEREOF IN COMBINATION WITH TYROSINE KINASE INHIBITORS” (TUBULIS GmbH, priority 2021, published 2025)
# T1: human wildtype FLT3 (hFLT3 wt) (Homo sapiens, UniProt P36888)
# T1 construct: expressed in transfected cells; host or cells: Ba/F3 cells, retrovirally transduced with MSCV-IRES-YFP (pMIY) vector
# T1 sequence (P36888 27-993): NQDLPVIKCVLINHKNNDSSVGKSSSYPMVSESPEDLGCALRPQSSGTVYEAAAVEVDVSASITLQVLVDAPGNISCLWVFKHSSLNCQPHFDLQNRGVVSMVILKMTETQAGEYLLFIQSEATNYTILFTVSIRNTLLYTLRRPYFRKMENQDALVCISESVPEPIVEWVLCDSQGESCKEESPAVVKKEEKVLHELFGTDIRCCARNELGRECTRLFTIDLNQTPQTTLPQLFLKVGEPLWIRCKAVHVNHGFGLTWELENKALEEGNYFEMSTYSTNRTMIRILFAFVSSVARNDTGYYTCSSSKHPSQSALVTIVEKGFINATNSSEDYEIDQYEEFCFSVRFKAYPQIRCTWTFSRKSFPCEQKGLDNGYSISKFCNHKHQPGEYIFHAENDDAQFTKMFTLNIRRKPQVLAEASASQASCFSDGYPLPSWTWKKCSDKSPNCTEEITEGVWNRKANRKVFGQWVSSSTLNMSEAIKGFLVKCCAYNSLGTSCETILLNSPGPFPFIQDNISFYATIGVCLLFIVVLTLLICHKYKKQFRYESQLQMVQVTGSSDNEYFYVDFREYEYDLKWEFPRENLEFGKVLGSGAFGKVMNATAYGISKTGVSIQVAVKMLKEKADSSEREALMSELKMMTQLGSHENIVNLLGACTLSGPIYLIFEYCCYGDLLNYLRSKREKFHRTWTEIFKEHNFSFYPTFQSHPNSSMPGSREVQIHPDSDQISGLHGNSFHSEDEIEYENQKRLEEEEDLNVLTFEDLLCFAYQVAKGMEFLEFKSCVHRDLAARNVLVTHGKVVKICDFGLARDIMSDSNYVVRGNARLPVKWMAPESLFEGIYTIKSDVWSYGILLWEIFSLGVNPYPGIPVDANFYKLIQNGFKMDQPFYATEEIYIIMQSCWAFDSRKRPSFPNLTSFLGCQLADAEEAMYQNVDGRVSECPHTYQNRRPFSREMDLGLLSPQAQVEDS
# How the values were obtained:
# cynomolgus monkey FLT3 = test: Cell surface binding to Ba/F3 cynoFLT3, flow cytometry
# Method: (§1) For antibody binding studies, cells were stained on ice with primary mouse, rat or human anti-FLT3 antibodies (in house) and secondary antibody Goat F(ab′)2 Anti-Human Ig-PE (2012-09), Goat Anti-Mouse IgG (H+L)-PE (1032-09) or Goat Anti-Rat IgG (H+L)-PE (3052-09) purchased from Southern Biotech. For internalization experiments, cells incubated with anti-FLT3 antibodies were washed and incubated for 30 min at 4° C. or 37° C. followed by staining with secondary antibody.
# Murine FLT3 (OMu21985D, Genescript), human CD64 (RC207487), CD32 (RC205786) and CD16 (RC206429), were purchased from Origene. Cynomolgues monkey FLT3 gene was synthesized from XM_015439107.1 by Eurofins. The constructs were cloned into retroviral expression vector MSCV-IRES-YFP (pMIY) using the In-Fusion HD Cloning Plus Kit (Takara Bio, Saint-Germain-en-Laye, France). All FLT3 point mutations were generated using the QuikChange II XL Site-Directed Mutagenesis Kit (Agilent Technologies, Santa Clara, CA, USA) and correct sequence was confirmed by Sanger sequencing. MSCV-IRES-YFP vectors with inserted human wildtype FLT3 and ITD (w51 and NPOS) mutated FLT3 has been described before (e.g., Opatz S, Polzer H, Herold T, et al. Exome sequencing identifies recurring FLT3 N676K mutations in core-binding factor leukemia. Blood. 2013; 122 (10): 1761-1769. doi: 10.1182/blood-2013-01-476473).
# (§2) For FLT3 expression analysis, cells were stained on ice with primary mouse anti-FLT3-AF647 antibodies for 30 min. For antibody binding studies, cells were stained on ice with chimeric (20D9) or humanized anti-FLT3 antibodies (in house) or IgG1 control with or without Leu234Ala/Leu235Ala (LALA)-mutation in the Fc region and secondary antibody goat F(ab′)2 Anti-Human IgG-AF647 (2042-31) purchased from Southern Biotech for 30 min, respectively. Binding and expression were subsequently measured at the flow cytometer (BD FACSCanto II) and the results were evaluated with FlowJo version 10.8.1.
# [1] = molecular target: T1, human wildtype FLT3 (hFLT3 wt); test: Cell surface binding to Ba/F3 hFLT3 wt, flow cytometry
# Method: as §1, §2
# [2] = system: FLT3 mutants FLT3/NPOS, FLT3/D835Y, FLT3/D835V, FLT3/NPOS D835Y, FLT3/NPOS N676K, FLT3/NPOS F6911, FLT3/NPOS F691L; test: Cell surface binding to Ba/F3 FLT3ITD and TKD mutants; parameters: species or system human
# Method: as §2
# [3] = system: FLT3 positive human cell lines; test: Cytotoxicity in leukemia and lymphoma cell lines, 96 h resazurin; assay type: cell-based; settings: FLT3 positive and negative cell lines
# Description: (A) Correlation of MFI of CD64 cell surface expression and MFI of FLT3 cell surface expression of myeloid human cell lines measure in flow cytometry. Expression data presented in Supplementary FIGS. 4A and B. Black line indicates simple linear regression with error interval. r=Pearson correlation coefficient; r^2=Coefficient of determination; p=p value from two tailed test with confidence interval of 95%. MFI=mean fluorescence intensity. (B,C,E,F) Assessment of cytotoxicity of ADCs in different human cell lines. Viability was determined after 96h treatment with different concentrations of ADCs by resazurin fluorescence and normalized to untreated control. Dashed line indicates 100 ng/ml drug concentration. Mean±s.d. of n=3 biological replicates. […] Black line indicates simple linear regression with error interval. (E) Treatment of FLT3 positive human cell lines with IgG1-ADC.
# human CD64 = molecular target: T2, human CD64 (Homo sapiens, UniProt P12314); test: Cell surface binding to Ba/F3 human CD64, flow cytometry
# T2 construct: host or cells: Ba/F3 cells, retrovirally transduced with MSCV-IRES-YFP (pMIY) vector
# Method: as §1
# Murine FLT3 (OMu21985D, Genescript), human CD64 (RC207487), CD32 (RC205786) and CD16 (RC206429), were purchased from Origene. Cynomolgues monkey FLT3 gene was synthesized from XM_015439107.1 by Eurofins. The constructs were cloned into retroviral expression vector MSCV-IRES-YFP (pMIY) using the In-Fusion HD Cloning Plus Kit (Takara Bio, Saint-Germain-en-Laye, France). All FLT3 point mutations were generated using the QuikChange II XL Site-Directed Mutagenesis Kit (Agilent Technologies, Santa Clara, CA, USA) and correct sequence was confirmed by Sanger sequencing. […]
# For FLT3 expression analysis, cells were stained on ice with primary mouse anti-FLT3-AF647 antibodies for 30 min. […] Binding and expression were subsequently measured at the flow cytometer (BD FACSCanto II) and the results were evaluated with FlowJo version 10.8.1.
# T2 sequence (P12314 16-374): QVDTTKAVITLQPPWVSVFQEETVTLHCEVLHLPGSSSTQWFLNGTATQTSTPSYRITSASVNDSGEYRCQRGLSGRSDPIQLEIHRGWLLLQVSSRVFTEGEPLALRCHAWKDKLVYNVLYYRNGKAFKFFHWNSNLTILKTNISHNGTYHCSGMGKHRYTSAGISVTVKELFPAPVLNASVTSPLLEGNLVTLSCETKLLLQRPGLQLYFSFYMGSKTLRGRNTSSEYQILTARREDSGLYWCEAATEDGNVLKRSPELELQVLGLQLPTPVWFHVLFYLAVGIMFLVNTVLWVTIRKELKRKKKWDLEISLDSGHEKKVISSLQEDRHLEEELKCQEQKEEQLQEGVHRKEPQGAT
Molecule,Binding to cynomolgus monkey FLT3 expressing Ba/F3 cell lines (cynomolgus monkey FLT3),Cross reactivity for cyno (cynomolgus monkey FLT3),Binding to Ba/F3-FLT3 cell line by flow cytometry [1],Binding to FLT3 with common mutations [2],Effect of unconjugated antibody on cell proliferation [3],Binding to Fc receptor CD64 via the IgG1 backbone (human CD64)
"20D9: chimeric (rat variable regions, human IgG1) anti-FLT3 monoclonal antibody; VH SEQ ID NO: 5, VL SEQ ID NO: 6 (antibody, V domains shown, Clone 20D9, heavy chain variable region without a signal seqeunce; Clone 20D9, light chain variable region without a signal seqeunce) VH: DVMLVESGGGLVQPGRSLKLSCVASGFTFNNYWMTWIRQAPGKGLEWIASITKTGGGTYYPDSVKGRFTISRDNAKSTLYLQMNSLRSEDTATYYCTTLQQLGVMDAWGQGASVTVSSA VL: DVQMTQSPSVLSASVGDRITLNCKASQNINKELNWYQQKLGEAPKLLIYNTNNLQTGIPSRFSGSGSGTDYTLTISSLQPEDVATYFCFQHKSWPLTFGSGTKLEIKR",bound,cross-reactive and yes,specifically bound,also binds to FLT3 with common mutations,did not impair cell proliferation,verified the binding
"4B12: chimeric anti-FLT3 antibody from rat; VH SEQ ID NO: 9, VL SEQ ID NO: 10 (antibody, V domains shown, Clone 4B12, heavy chain variable region without a signal sequence; Clone 4B12, light chain variable region without a signal seqeunce) VH: QVQLQQSGPGLVQPSQTLSLTCTVSGFSLTSYNVNWVRQPPGKGLEWIGAMWRGGGTDYNPALKSRLSISRDTSKSQVFLKMNRLQTEDTAIYFCTRGFGDYWGQGVMVTVSSA VL: DIQMTQTPLSLSVAIGQSASISCKSSQSLKYSDGKTYLNWVFQSPGQSPKRLIYQVSKLDSGVPDRFSGTGSETDFTLKISRVEAEDLGVYYCCQGSYSPSTFGAGTKLELKR",–,cross-reactive and yes,specifically bound,–,–,–
